Assay results published in the nanobody polyreactivity screen of Harvey et al. (2022).

Experiment: yeast display, Sf9 membrane polyspecificity reagent, FACS + sequencing; frameworks hold sequencing errors
Method in brief: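 Sorting gates, low and high (top ~1%), were placed on anti-HA fluorescence to track expression and on streptavidin fluorescence to track reagent binding. A clone's polyreactivity label is taken from the gate it came out of. The reagent was 10% biotinylated, detergent-solubilized Sf9 membrane, applied for 1 hour at 4 °C to galactose-induced yeast display cells.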
In the case of “QDQLVESGGGLVQAGGSLRLSCAASGITFQYYAMGWYRQAPGKERELVAAITKRGGSTYYADSVKGRFTISRDNAKNTVYLQMKSLKPEDTAVYYCAADYGSWRNYIFLDDYWGQGTQVTVSS”, the “polyreactivity (PSR sort gate)” value is reported as “high polyreactivity”.
In the case of “QDQLVESGGGLVQAGGSLRLSCAASGITFRYYAMGWYRQAPGKERELVAAITGGGGSTYADSVKGRFTISRDNAKNTVYLQMNSLKPEDTAVYYCNATPRARSLPLRYQHDYWLQGTQVTVSS”, the “polyreactivity (PSR sort gate)” value is reported as “low polyreactivity”.
In the case of “QDQLVESGGGLVQAGGSLRLSCAASGITFYRNAMGWYRQAPGKERELVAAISRRGGITRYADSVKGRFTISRDNAKNTVYLQMNSLKPEDTAVYYCAKAIGSTALRRATEDYWGQGTQVTVSS”, the “polyreactivity (PSR sort gate)” value is reported as “high polyreactivity”.
In the case of “QDQLVESGGGLVQAGGSLRLSCAASGITSNPYDMGWYRQAAGKERELVAVITSGGSTSYADSVKGRFTISRDNAKNTVYLQLISLKREDTAVYYCNSVYAGWRGGNYWGQGTQVTVSS”, the “polyreactivity (PSR sort gate)” value is reported as “low polyreactivity”.
For “QDQLVESGGGLVQAGGSLRLSCAASGLIFKYNAMGWSRQAPGKERELVADINRSGGSTYYADSVKGRFTISRDNSKNTVSLQMNSLKPEDSAVYDCAAERVSLYWVIFGYWGQGTQVTVSS”, the “polyreactivity (PSR sort gate)” value was “low polyreactivity”.
In the case of “QDQLVESGGGLVQAGGSLRLSCAASGLIFYDNLGWYRQAPGKERELVAAISSSGGSTSYADSVKGRFTISRDNAKNTVYLQMNSLKPEDTAVYYCAADSYPAYLGFVGFDYWGQGTQVTVSS”, the “polyreactivity (PSR sort gate)” value is reported as “low polyreactivity”.
With “QDQLVESGGGLVQAGGSLRLSCAASGLNLGIYAMGWYRQAPGKERELVAAISRGGGSTYYADSVKGRFTISRDNAKNTVYLQMNSLKPEDTAVFYCNAVRYRYGVFPYYYWGQGTQVTVSS” the “polyreactivity (PSR sort gate)” value was “high polyreactivity”.
For “QDQLVESGGGLVQAGGSLRLSCAASGLTFYSNTMGWYRQAPGKERELVAGISWGGDTTYYADSVKGRFTISRDNAKNTVYLQMNSLKPEDTAVYYCAADRSYWRHRYSYDYWGQGTQVTVSS”, the “polyreactivity (PSR sort gate)” value was “low polyreactivity”.
With “QDQLVESGGGLVQAGGSLRLSCAASGNIFDYYAMGWYRQAPGKERELVATITWSSGRTYYADSVKGRFTISRDNAKNTVYLQMNSLKTEDTAVYYCNTRSYTRYDYWGQGTQVTVSS” the “polyreactivity (PSR sort gate)” value was “low polyreactivity”.
With “QDQLVESGGGLVQAGGSLRLSCAASGRIFKFNAMGWYRPAPGKERELVAAITSGGSTNYADSVKGRFTLSRDNEKNTVYLQMNSLKREDTAVYYCAKSTPRFYPRGFYYWGHGTQVTVSS” the “polyreactivity (PSR sort gate)” value was “low polyreactivity”.
In the case of “QDQLVESGGGLVQAGGSLRLSCAASGRIFRYYAMGWYRQAPGKERELVAGMSGSGGSTYYADSVKGRFTISRDNAKNTVYLQMNSLKPEDTAVYYCAADYVRVGSLHGVYTYKKYDYWGQGTQVTVSS”, the “polyreactivity (PSR sort gate)” value is reported as “high polyreactivity”.
For “QDQLVESGGGLVQAGGSLRLSCAASGRLFATYAMGWNRQAPGKERELVAAISDSGGRTYYADSVTGRFTSSRDNAKNTVYLQMNSLKPEDTAVYYCAAKNGDRYARGYWGQGTQVTVSS”, the “polyreactivity (PSR sort gate)” value was “high polyreactivity”.
For “QDQLVESGGGLVQAGGSLRLSCAASGRNFYRNAMGWYRPAPGKEWEVVAAITQSSGSTYYADSVKGRCTISRDNAKHTVYLQMNSLKPEDTAVYYCAALVRKYGVDYWGQGTQVTVSS”, the “polyreactivity (PSR sort gate)” value was “high polyreactivity”.
In the case of “QDQLVESGGGLVQAGGSLRLSCAASGRTFDDYAMGWSRPAPGKERELVAAINSGGNTYYADSVKGRFTISRDNAKNTVYLQMNSLKREDTADYYCAAYYRDKLSGYNYWRQGTQVTVSS”, the “polyreactivity (PSR sort gate)” value is reported as “high polyreactivity”.
For “QDQLVESGGGLVQAGGSLRLSCAASGRTFGRYAMGWYRQAPGKERELVASISYSTDSTYYADSVKGRFTISRDNAKNTVYLQMNSLKPEDTAVYYCATDSVNVGSYVGDKHDYWGQGTQVTVSS”, the “polyreactivity (PSR sort gate)” value was “low polyreactivity”.
With “QDQLVESGGGLVQAGGSLRLSCAASGRTFPGYAMGWYRQAPGKERELVATSTVSDGSTYYADSVKGRFTISRDNAMNTVYLHMNSLIAEDTAVYYCAKDGGRKRSYSDFDYWRQGTQVTVSS” the “polyreactivity (PSR sort gate)” value was “low polyreactivity”.
For “QDQLVESGGGLVQAGGSLRLSCAASGRTFRRYAMGWYRQAPGKERELVAAISASGGSTYYADSVKGRFTISRDNAKNTVYLQMNSLKPEDTAVYYCYALHRAGLFGHYPYESWGQGTQVTVSS”, the “polyreactivity (PSR sort gate)” value was “high polyreactivity”.
For “QDQLVESGGGLVQAGGSLRLSCAASGRTFSRYALGWYRQAPGKERELVAAISWSGGTTHYADSVKGRFTISRDNAKNTVYLLMNRLKPEDTAFYYCNKLRQIEFWGQGTQVTVSS”, the “polyreactivity (PSR sort gate)” value was “high polyreactivity”.
In the case of “QDQLVESGGGLVQAGGSLRLSCAASGRTFSYYTMGWYRQPPGKERELVARISNRGTNTYYADSVKGRFTISRDNAKNTVYLQLNSLKPEDTAVYYCAKYYYPSIVGYDSWGQGTQVTVSS”, the “polyreactivity (PSR sort gate)” value is reported as “low polyreactivity”.
With “QDQLVESGGGLVQAGGSLRLSCAASGRTFTGYTMGWYRQAPGKERELVASISSSGGRTYYADSVKGRFTISRDNAKNTVFLQMKSLKPEDTAVYYCAKRGAYGYGYYSYDYWGQGTQVTVSS” the “polyreactivity (PSR sort gate)” value was “high polyreactivity”.
With “QDQLVESGGGLVQAGGSLRLSCAASGRTFTRYAMGWYRPAPGKERELVAAISKRGGSTYYADSVKGRFTISRDNAKNTVYLQMNSLKPEDTAVYYCAADQPYHDSEYWGQGTQVTVSS” the “polyreactivity (PSR sort gate)” value was “high polyreactivity”.
In the case of “QDQLVESGGGLVQAGGSLRLSCAASGRTFTSNAMGRYRQAPGKERELVAAINFRGDSTYYADSVKGRFTISRDNAKNTVYLQMNSLKPEDSAVYYCAAVGGRSSYRLDYWGQGTQVTVSA”, the “polyreactivity (PSR sort gate)” value is reported as “low polyreactivity”.
With “QDQLVESGGGLVQAGGSLRLSCAASGRTFVHYVMGWYRQAPGKERELVAAITSSGGSTYADSVKGRFTISRDNAKNTVYLQMNSLKPEDTAVYYCAADYLDGVGDVEHDYWGQGTQVTVSS” the “polyreactivity (PSR sort gate)” value was “low polyreactivity”.
For “QDQLVESGGGLVQAGGSLRLSCAASGRTFVSNGMGWYRQAPGKERELLADINDGDDTYYADSVKGRFTISRDNAKNTVYLQMNSLKPEDTAVYYCAADPYWFFPHYDSWGQGTQVTVSS”, the “polyreactivity (PSR sort gate)” value was “low polyreactivity”.
In the case of “QDQLVESGGGLVQAGGSLRLSCAASGRTFVSYVMGGYRQAPGKERELVAAIRRRGGRTYYSDSVKGRFTISRDNAKNTVYLQMNSLKPEDTAVYYCAAAQPGTNAYRVGSWGQGTQVSVSS”, the “polyreactivity (PSR sort gate)” value is reported as “high polyreactivity”.
With “QDQLVESGGGLVQAGGSLRLSCAASGRTFVYNAMGWYRKAPGKVRELVAAITRGGSTNYADSVKGRFTISRDNAKNTVYLQMNILKPEDTAGYYCAAGLKRYGSYPWLKSGMGYWGQGTQVTVSS” the “polyreactivity (PSR sort gate)” value was “high polyreactivity”.
In the case of “QDQLVESGGGLVQAGGSLRLSCAASGRTFWYYAMGWYRQATGKERELVAAISSRGGTTYYADSVKGRFTISRDNAKNTVYLQMNSVKPEDTAVYYCASERWDLWLLYDYWGQGTQVTVSS”, the “polyreactivity (PSR sort gate)” value is reported as “high polyreactivity”.
In the case of “QDQLVESGGGLVQAGGSLRLSCAASGRTFYRNAMGWYRQAPGKERELVAAISGSGVRTYYADSVKGRFTISRDNAKNTVYLHMNSLKPEDTAVYYCARSVTWFRGRFSPDYGSWGQGTQVTVSS”, the “polyreactivity (PSR sort gate)” value is reported as “high polyreactivity”.
For “QDQLVESGGGLVQAGGSLRLSCAASGRTFYRYAMGWSRQAPGKERELVAVISTDGSSTYYADSVKGRFTISRDNAKNTVYLQMNSLKPVDTAVYYCAARAPESYVSTRAHYYWGQGTQVTVSS”, the “polyreactivity (PSR sort gate)” value was “high polyreactivity”.
With “QDQLVESGGGLVQAGGSLRLSCAASGRTFYYSAMGWSRQAPGKERELVATMSRGITNYADSVKGRFTISRDNAKNTVYLQMNSLKPEDTAVYYCAARDGWRSHFRGDYWGQGTQVTVSS” the “polyreactivity (PSR sort gate)” value was “high polyreactivity”.
For “QDQLVESGGGLVQAGGSLRLSCAASGSICSEYAMGWYRQAPGKERELVAAISRSGGTTYYADSVKGRFTISRDNAKNTVFLQMNSLKPEDTAVYYCAARYFRGSYPMGYWGQGTQVTVSS”, the “polyreactivity (PSR sort gate)” value was “high polyreactivity”.
With “QDQLVESGGGLVQAGGSLRLSCAASGSIFAYYVMGWYRQAPGKERELVAAISKSGGSTYYADSVQGRFTISRDNAKNTVYVQRNSLKPEDPAVYYCAAPQRYPRFYYWGQGTQVTVSS” the “polyreactivity (PSR sort gate)” value was “high polyreactivity”.
In the case of “QDQLVESGGGLVQAGGSLRLSCAASGSIFFINAMGWYRQAPGKERELVAAITYSGGSTYYADSVKGRFTISRDNAKYTVYLQMNSLKPEDTAVYYCAADQYSFLPWIAWLLDDYWGQGTQVTVSS”, the “polyreactivity (PSR sort gate)” value is reported as “low polyreactivity”.
With “QDQLVESGGGLVQAGGSLRLSCAASGSIFKRYAMGWYRQAPGKERELVAAISYSGGSTYYADSVKGRFTISRDNAKNTVYLQMNSLKPEDTAVYYCAAATYRQQWHYYWGQGTQVTVSS” the “polyreactivity (PSR sort gate)” value was “high polyreactivity”.
For “QDQLVESGGGLVQAGGSLRLSCAASGSIFLIYAMGGYRQAPGKERELVAAITWGGGSTYYADSVKGRFTISRDNAKNTVYLQMTSLKPVDTAVYYCAAYSYSSSFGYRYDYWGQGTQVTVSS”, the “polyreactivity (PSR sort gate)” value was “high polyreactivity”.
For “QDQLVESGGGLVQAGGSLRLSCAASGSIFQSNAMGWYRQAPGKERELVAAITSVGRTNYADSVKGRFTIARDNAKNTVYLQMNSLKPEDTAVYYCAADLRGDNRYYYWGQGTQVTVSS”, the “polyreactivity (PSR sort gate)” value was “low polyreactivity”.
In the case of “QDQLVESGGGLVQAGGSLRLSCAASGSIFQSYAMGWYRQAPGKERELVAANDRSGTSTYYADSVKGRFTISRDNAKNTVYLQLNSLKPEDTAVYYCAAVSSRGRFGYTVQIEYDYWGQGTQVTVSS”, the “polyreactivity (PSR sort gate)” value is reported as “low polyreactivity”.
In the case of “QDQLVESGGGLVQAGGSLRLSCAASGSIFRRNSIGWYRQAPGKERELVAAIRWSSGSTYYADSVKGRFTISRDNAKNTVYLQMNSLKPEDTAVYYCAAAKRAYSYVLHAFYYWGQGTQVTVSS”, the “polyreactivity (PSR sort gate)” value is reported as “high polyreactivity”.
With “QDQLVESGGGLVQAGGSLRLSCAASGSIFSYTMGCYRQAPAKQRELVAAITSGGITYYADSVKGRFSISRDNAKNTVYLQMNSLKPEDTAVYYCADGWSSYRFGYWGQGTQVTVSS” the “polyreactivity (PSR sort gate)” value was “low polyreactivity”.
With “QDQLVESGGGLVQAGGSLRLSCAASGSIFVIYAMGWYRPAPGKERQLVAAITTIGGRTYYADSVKGRFTISRDHAKNTVYLQMNSLKPEDTAVYYCAADIRSNRLYDGGYWGQGTQVTVSS” the “polyreactivity (PSR sort gate)” value was “low polyreactivity”.
